A short description of the data set: self-splicing fitness, log relative to wild type (ln ratio); higher = more splicing; Tetrahymena group I intron in knt gene, E. coli kanamycin selection, DiMSum; sequences stand for … in CUCUCU…GGAGGGAAAAGUUAUCAGGCAUGCACCUGGUAGCUAGUCUUUAAACCAAUAGAUUGCAUCGGUUUAAAAGGCAAGACCGUCAAAUUGCGGGAAAGGGGUCAACAGCCGUUCAGUACCAAGUCUCAGGGGAAACUUUGAGAUGGCCUUGCAAAGGGUAUGGUAAUAAGCUGACGGACAUGGUCCUAACCACGCAGCCAAGUCCUAAGUCAACAGAUCUUCUGUUGAUAUGGAUGCAGUUCACAGACUAAAUGUCGGUCGGGGAAGAUGUAUUCUUCUCAUAAGAUAUAGUCGGACCUCUCCUUAAUGGGAGCUAGCGGAUGAAGUGAUGCAACACUGGAGCCGCUGGGAACUAAUUUGUAUGCGAAAGUAUAUUGAUUAGUUUUGGAGUACUCGUGGUCG
Summed up:
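A randomised library covering all eight P1ex-region intron nucleotides was built with the intron in the knt kanamycin-resistance gene on pET-22b(+) and held in E. coli BL21(DE3). Cells were grown overnight at 37°C or 30°C on LB agar, with or without 25 μg/mL kanamycin, plus 100 μg/mL carbenicillin, 50 μM IPTG and 0.2% rhamnose, and pooled colonies were amplicon-sequenced on an Illumina HiSeq 2500. DiMSum fitness is the error-weighted combination of wild-type-normalised replicate fold changes, kanamycin versus none.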

± gives the uncertainty stated by the source.

Turning to CUGAAGCAAUAUUACGUUGC, the “self-splicing fitness (ln)” value runs as follows: (30 °C) -4.09 ± 0.26; (37 °C) -0.264 ± 0.2.

For CUGCAGCAAUAUUACGCAAA, the “self-splicing fitness (ln)” value is, setting by setting: (30 °C) -2.18 ± 0.2; (37 °C) -3.55 ± 0.24.

CUGCAGCAAUAUUACGCAGC: for the setting “30 °C”, the “self-splicing fitness (ln)” value was -2.88 ± 0.32.

Consider CUGCAGCAAUAUUACGCAUG, for which the “self-splicing fitness (ln)” value was -2.5 ± 0.12 (30 °C) and -1.8 ± 0.14 (37 °C).

For the sequence CUGCAGCAAUAUUACGCCAC, the “self-splicing fitness (ln)” value by setting is: (30 °C) -2.82 ± 0.26; (37 °C) -2.82 ± 0.44.

On to CUGCAGCAAUAUUACGCCCU, for which the “self-splicing fitness (ln)” value reads like this: (30 °C) -3.15 ± 0.37; (37 °C) -1.71 ± 0.33.

On to CUGCAGCAAUAUUACGCCGU, for which, where the note is “37 °C”, the “self-splicing fitness (ln)” value was -1.3 ± 0.31.

With CUGCAGCAAUAUUACGCGUU, the “self-splicing fitness (ln)” value reads like this: (30 °C) -3.32 ± 0.12; (37 °C) -2.1 ± 0.16.

Regarding CUGCAGCAAUAUUACGCUAA, where the note is “30 °C”, the “self-splicing fitness (ln)” value is -3.28 ± 0.29.

As for CUGCAGCAAUAUUACGGCCA, the “self-splicing fitness (ln)” value by setting is: (30 °C) -1.25 ± 0.34; (37 °C) -0.578 ± 0.24.

For the sequence CUGCAGCAAUAUUACGGGUA, the “self-splicing fitness (ln)” value was -3.32 ± 0.4 (30 °C) and -0.797 ± 0.14 (37 °C).

CUGCAGCAAUAUUACGUAAG: the “self-splicing fitness (ln)” value (30 °C) is -0.296 ± 0.069 and the “self-splicing fitness (ln)” value (37 °C) amounted to 0.277 ± 0.08.

Turning to CUGCAGCAAUAUUACGUAUG, the “self-splicing fitness (ln)” value was -1.27 ± 0.091 (30 °C) and -1.19 ± 0.12 (37 °C).

As for CUGCAGCAAUAUUACGUCCC, the “self-splicing fitness (ln)” value (30 °C) was -1.66 ± 0.42.

For the sequence CUGCAGCAAUAUUACGUCGC, the “self-splicing fitness (ln)” value was -4.61 ± 0.46 (30 °C) and -2.83 ± 0.32 (37 °C).

For CUGCAGCAAUAUUACGUGGC, the “self-splicing fitness (ln)” value runs as follows: (30 °C) -3.72 ± 0.21; (37 °C) -3.03 ± 0.24.

Regarding CUGGAGCAAUAUUACGAAUC, the “self-splicing fitness (ln)” value (30 °C) is -3.47 ± 0.43 and the “self-splicing fitness (ln)” value (37 °C) is -1.68 ± 0.45.

Consider CUGGAGCAAUAUUACGAUCG, for which the “self-splicing fitness (ln)” value was -1.7 ± 0.14 (30 °C) and 0.264 ± 0.21 (37 °C).

As to CUGGAGCAAUAUUACGGAAU, the “self-splicing fitness (ln)” value (37 °C) was -2.05 ± 0.36.

In the case of CUGGAGCAAUAUUACGGACG, the “self-splicing fitness (ln)” value runs as follows: (30 °C) -1.4 ± 0.11; (37 °C) -0.808 ± 0.11.

For the sequence CUGGAGCAAUAUUACGGCUG, the “self-splicing fitness (ln)” value is, setting by setting: (30 °C) -1.48 ± 0.15; (37 °C) -0.00856 ± 0.18.

As for CUGGAGCAAUAUUACGGGGC, the “self-splicing fitness (ln)” value is, setting by setting: (30 °C) -4.12 ± 0.46; (37 °C) -2.29 ± 0.46.

In the case of CUGGAGCAAUAUUACGGGUA, the “self-splicing fitness (ln)” value (30 °C) was -2.59 ± 0.23 and the “self-splicing fitness (ln)” value (37 °C) is -1.77 ± 0.26.

On to CUGGAGCAAUAUUACGUAAA, for which the “self-splicing fitness (ln)” value by setting is: (30 °C) -3.78 ± 0.36; (37 °C) -2.22 ± 0.3.

In the case of CUGGAGCAAUAUUACGUAAG, the “self-splicing fitness (ln)” value was -1.06 ± 0.083 (30 °C) and -0.0976 ± 0.1 (37 °C).

For CUGGAGCAAUAUUACGUAGU, the “self-splicing fitness (ln)” value (37 °C) was -3.43 ± 0.46.

Regarding CUGGAGCAAUAUUACGUCCA, under “37 °C”, the “self-splicing fitness (ln)” value is -2.26 ± 0.44.

As to CUGUAGCAAUAUUACGACCC, for the setting “30 °C”, the “self-splicing fitness (ln)” value is -1.04 ± 0.43.

Turning to CUGUAGCAAUAUUACGACUC, the “self-splicing fitness (ln)” value (30 °C) is -4.11 ± 0.42 and the “self-splicing fitness (ln)” value (37 °C) was -1 ± 0.3.

In the case of CUGUAGCAAUAUUACGCAGC, the “self-splicing fitness (ln)” value (30 °C) is -3.17 ± 0.41.

In the case of CUGUAGCAAUAUUACGCAUU, the “self-splicing fitness (ln)” value by setting is: (30 °C) -3.8 ± 0.27; (37 °C) -3.28 ± 0.47.

As to CUGUAGCAAUAUUACGCCGG, the “self-splicing fitness (ln)” value is -2.3 ± 0.2 (30 °C) and -0.642 ± 0.19 (37 °C).

For the sequence CUGUAGCAAUAUUACGCCGU, the “self-splicing fitness (ln)” value (37 °C) is -2.96 ± 0.4.

Consider CUGUAGCAAUAUUACGCCUC, for which the “self-splicing fitness (ln)” value (30 °C) is -2.16 ± 0.4.

Consider CUGUAGCAAUAUUACGCCUU, for which the “self-splicing fitness (ln)” value (30 °C) was -3.46 ± 0.35 and the “self-splicing fitness (ln)” value (37 °C) was -2.74 ± 0.3.

On to CUGUAGCAAUAUUACGCUCA, for which the “self-splicing fitness (ln)” value runs as follows: (30 °C) -2.22 ± 0.22; (37 °C) -1.95 ± 0.23.

As to CUGUAGCAAUAUUACGGAAA, the “self-splicing fitness (ln)” value (30 °C) was -0.916 ± 0.34.

Source of the values: the supplement of paper PMC7877785.
